Measured values taken from article PMC4049620.

Tests used:
[1] = target: T9 SipA_(36-173), N-terminally His-tagged (entire extracellular region of SipA from S. pyogenes serotype T9 strain 90/306S) (Streptococcus pyogenes serotype T9 strain 90/306S); assay: crystal structure; Space group P6_(4)22, two molecules in the asymmetric unit; octamer built by crystal symmetry; crystals grown at 18°C from 1 M NaKPO4 pH 7.0, 8% MPD
[2] = target: T9 SipA_(36-173), N-terminally His-tagged (entire extracellular region of SipA from S. pyogenes serotype T9 strain 90/306S) (Streptococcus pyogenes serotype T9 strain 90/306S); assay: SEC + other: dynamic light scattering; Superdex S200 10/300 in 10 mM Tris.Cl pH 8.0, 100 mM NaCl; single peak, species of about 150 kDa after glycine treatment; data not shown
[3] = target: T9 SipA_(36-173), N-terminally His-tagged (entire extracellular region of SipA from S. pyogenes serotype T9 strain 90/306S) (Streptococcus pyogenes serotype T9 strain 90/306S); assay: SAXS; Australian Synchrotron SAXS/WAXS beamline; dilution series 1-20 mg/ml; experimental curve compared by CRYSOL with the curve calculated from the crystal octamer (chi^2 = 1.29)

Measured: stoichiometry N

T9 SipA_(36-173), N-terminally His-tagged (entire extracellular region of SipA from S. pyogenes serotype T9 strain 90/306S) (domain or fragment)
8: all assays above
